Source: US20090304580A1

Experiments:
[1] = biological target: IMP-288 di-HSG hapten-peptide, DOTA-D-Tyr-D-Lys(HSG)-D-Glu-D-Lys(HSG)-NH2; assay: size-exclusion elution of 111In-IMP-288 with TF10
[2] = biological target: PAM4 antigen (human pancreatic cancer mucin, CaPan1) (human); assay: ELISA on target mucin antigen (FIG. 9)
[3] = biological target: PAM4 antigen (human pancreatic cancer mucin, CaPan1) (human); assay: size-exclusion elution of the 111In-IMP-288/TF10 complex with excess mucin
[4] = biological target: PAM4 antigen (human pancreatic cancer mucin, CaPan1) (human); assay: radiolabelled TF10 mixed with mucin, size-exclusion analysis

Row | Substance | percent bound [1] | EC50 [2] | percent of TF10-bound peptide eluting at higher molecular weight with excess mucin [3] | immunoreactive fraction bound [4]
1 | TF10 bispecific ([hPAM4]2 x h679) trimeric DNL construct (bispecific antibody) | 90% | 1.42 nM | 92% | 87%
2 | PAM4-F(ab')2 (antibody) | – | 1.83 nM | – | –
